System: H460 cells
Assay: H460 non-small cell lung carcinoma xenograft model
Format: in vivo, athymic nude mice
Conditions: combination partner Paclitaxel, Day 21
Protocol: Animals were monitored for regression responses.
The statistical tests were not adjusted for multiple comparisons.
Cultured H460 cells were harvested during exponential growth and resuspended in phosphate buffered saline at a concentration of 1×10^8 cells/mL. 1.0×10^7 tumor cells were injected subcutaneously into the flank of athymic nude mice. Animals were euthanized when tumors reached the pre-determined volume endpoint of 2000 mm^3 or on the final day (Day 88), whichever came first.

B1: M830: TEM8 monoclonal antibody (hIgG1), VH SEQ ID NO:5, VL SEQ ID NO:6; Fab in Table 6 (antibody, V domains shown)
VH: EVQLVESGGGVVQPGRSVRLSCAASGFTFSTYTMHWVRQAPGKGLEWVAIISNDGSNKYYADPVRGRFTISRDNSKNTLYLQMNSLRAEDTAVYYCVRGSSWYRGNWFDPWGQGTLVTVSS
VL: DIQMTQSPSSLSASVGDRVTIACRASQTISRYLNWYQQKPGKAPKLLIYAASSLQSGVSSRFSGSGSGTEFTLTISSLQPEDFATYFCQQTYSPPITFGQGTRLEIKR
modifications: TEM830 mAb VH; TEM830 mAb VL
regression: (−61%

From patent US11033621B2, “Combination therapies targeting tumor-associated stroma or tumor cells” (BIOMED VALLEY DISCOVERIES, INC., priority 2014, dated 2021)
